Reference: article PMC3299919

Biological target: Nucleocapsid protein N (Rift Valley fever virus (strain M12)) (UniProt P21700)
Assay: FP competition
Details: 10 mM HEPES pH 7.3 ([…]) or pH 8 ([…]

Chain of UniProt P21700 (P21700 whole entry): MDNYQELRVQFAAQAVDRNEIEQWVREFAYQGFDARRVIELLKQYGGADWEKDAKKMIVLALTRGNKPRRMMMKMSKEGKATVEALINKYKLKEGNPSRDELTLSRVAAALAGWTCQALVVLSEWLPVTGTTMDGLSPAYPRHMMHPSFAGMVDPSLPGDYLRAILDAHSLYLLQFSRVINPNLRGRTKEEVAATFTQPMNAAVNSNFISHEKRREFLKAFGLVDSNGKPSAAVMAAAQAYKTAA

CGUCCCGUAGUGUCGGUACUGAUUGAUGUG [MBE15.3]
Ki: 200 nM
